Results as given in patent US20150351390A1, “COMPOSITIONS AND METHODS FOR AUXIN-ANALOG CONJUGATION” (PIONEER HI-BRED INTERNATIONAL, INC., priority 2012, published 2015).
Entries after “also recorded” stand apart in the source; their conditions may differ.

B1: PpGH3-2: GH3 protein, accession CAD42871 (protein, listed as Physcomitrella patens)
chain: MALRIENPYYKLLDTDEEIVEDFELMSRNARETQLELLRKILERNANVEYLQRQGLNGRTDEASFKACVPVSTYANIEADVDRIADGDTSPICCVDPPTSFALSSGTTGGKCKLIPRTDALLAQAMKAGQIGSVYRRRAFPRKHEGPPVVMSFQYAGRQFDTKSGLKAGTGTTNFYRSAAFKNAKSAPFSATSPVDIVLGYDVPQQMYCHLLCGLYRCQEVEQMSAIFAYMIVEPFRLLERVWRDICKDIREGTVNERVSDPELRSSVLKVLSPNPELADLIERECAKGWSGIIERLFPNINYIMSIFSGSMLPYVAPMRQYAGSVPLMNADYGASEAWIGINLDPRCPAEDASFTIIPNFAYFEFIPVNRDSAGYDSVEGDEIVGLTDVKVGQEYEIVLTTVGGLYRYRLGDIVKVTGFFNSTPKVAFVCRKGVVLSVNTDKTDEEELRLVVGKASLLLKESNMELADYSSYTDQDSQPGHYVIFWELRSHEHLDMDLLSECCKVLDQSFNNPYMRGRAARTIGPLELAIVKEGAFARLMEQFVRKNGVGASQYKVSRCFKNPATLKHFRDETIATLRSPDFPPELLAAWRPSTKIVG
B2: VvGH3-7: GH3 protein, accession XP_002272560 (protein, listed as Vitis vinifera)
chain: MESAAGAESNGEHEIIGWFEDVSENTGYVQTQTLCRILELNSGVEYLKKWLGDINVQEMEASALESLYTSLVPLASHADLETYIQRIADGDTSPILTNQPITTLSLSSGTTEGRQKYVPFTRHSSQTTLQIFQLAAAYRSRVYPITPGRRILEFIYSSKQFKTKGGLIAGTATTHYFASEEFKIKQEKTKSFTCSPEEVISSGDYKQSTYCHLLLGLHFHDEVEFITSTFAYSIVQAFRTFEELWRNICSDIREGIVSSRISLPKVRKAVSDIISPNPGLASWIEASCKELEDKDWFGLIPKLWPNAKYVYSIMTGSMQPYLKKLRHYAGDLPLVSADYGSTESWIGANIDPSSPPENVTFAVIPTFSYFEFIPLYRQNQNCSSSIDDFIEDEPVPLSQVKIGQEYEIVLTTFTGLYRYRLGDVVEVAGFHKGTPKLNFICRRKLILTVNIDKNTEKDLQSVVEVGSQLLGKTKAELVDFTSHADLVKQPGHYIIYWEIKGEADDKVLSECCNEMDACFVDQGYIVSRKTHSIGPLELCIVERGTFKKILDHFIGKGAALSQFKTPRCTADEVLLRILNVCTIKRFHSTAYG
B3: VvGH3-9: GH3 protein, accession XP_002280738.1 (protein, listed as Vitis vinifera)
chain: MLEKMEEFKAEKVIEEFEELTKDAGRVQRETLKKILEDNASAEYLQKQGLNGRTDPESYQACVPLVTHADLVPYIKRIADGDTSPVLTGKPIKTMSLSSGTTQGKQKYVPFNDELLETTLQIYRTSFAFRNREFPVRNGMALQFIYGSKQFKTEGGLFAGTATTNVFSSSQFKTTMKAIESPCCSPDEVIFGPDFRQSLYCHLLCGLIHHNEIQLVSSTFAHSIVYAFRTFEQVWEQLCADIQDGVLTKDVTVPSIRAVMSKLLKPNPELAEWIYKKCSGLSNWYGVIPALFPNVKYVYGIMTGSMEPYLKKLRHYAGDVPLLSADYGSSEGWIGANINPKLPPELATYAVLPNIGYFEFIPLRGSAEEDRQDKIQSSFESKPVGLTEVKIGEEYEIIVTNFAGLYRYRLGDVVKIAGFHNMTPELQFVCRRNLLLTINIDKNTEKDLQLAVEAAAEVLAPEKVEVIDFTSQVDKSTDPGHYVIFWEISGEVSVEVSSECCNCLDRSFVDAGYISSRKVNSIGPLELKLVRRGTFQKILDHYLGIGGVLSQYKTPRCVNPNNNMVLQILYSNVVKSHFSTAFG
B4: RcGH3-5: GH3 protein, accession EEF28472 (protein, listed as Ricinus communis)
chain: MTKNAERVQKETLKKILEENGSAEYLQNLGLDGRTDPESFKICVPICTHGDLEPYIQRIADGDSSPVLTGKPITTISLSSGTTQGKPKYVPFTDQLLDNTLQIFRTSFAYRNREFPLENGKALEFVFSSKQGKTKGGLAAGTATTNLFRNPNYKTALEELQFKSCSPREVIFGSDFHQSLYCHLLCGLIFREDIQFVFSTFAHSIVLAFRTFEQVWEELCDDIRNGELSSRITAPSIRTAMSHLLKPNAELADLIHTKCSGLSNWYGLIPELFPNAKYIYGIMTGSMEPYLKKLRHYAGELPLLSADYGASEGWIAANVNPLLPPELATFAVLPDIGYFEFIPLRRNGDHIYSEPKPIGLSDVKIGEEYEILVTNFAGFYRYRLGDVVKVMGFHNSTPELKFVCRRSLLLSINIDKNTEKDLQLVVEEAAKLLADEKLEVVDFSSLADRSTDPGHYVIFWEISGEPTAEVLQECCNCLDRSFLDAGYVTSRKVKAIGPLELRVVHRGTFQKILDHYLGLGAAVSQFKTPRCVGPANNVVSQILSNNVAKSYVSTAF
B5: PtGH3-10: GH3 protein, accession EEE95291 (protein, listed as Populus trichocarpa)
chain: MEPKNTNGSSRSYEHDIISWFEDISKKAGQVQTETLRRILELNWGVEYLNKWLGDINIQDMDASALESLYTSLVPPASHADLEPYISRIADGDTVPLLTKQPITLLSLSSGTTDGRQKFVPFTDHSARTTLQIFSLAAAYRSRVYPTREGGRILEFIYSSKQFKTKGGLTAGTATTHYYASEEFKIKQEKTKCFTCSPQEVICGGDYEQSTYCHLLLGLFFCDQVEFITSTFAYSIVQAFTAFEDVWRDICNDIKHGTLSERINLAKMRKAVLSIISPNPSLASKIEENCKELETQNWLGLITKLWPNSKYVYSIMTGSMQPYFKKLRHYAGGLALVSADYGSTESWIGANVDPYLPPEDVTFAVIPTFSYYEFMPLYRENHYCGSAIDDFIEDEPVPLSKVKVGQEYEIVLTTFTGLYRCRLGDVVEVAGFHKGTPKLNFICRRKLILTINIDKNTEKDLQLVVEKGSQLLMSKARAELVDFTSHAELETQPGHYIIYWEIKGDVEEEVLGECCKKMDASFVDHGYVVSRRTKSIGPLELCIVKTGTFKKILEYFIGNGAALSQFKTPRCTSNHGLLKILNGSTIKRLYSTAYS

How the values were obtained:
Type in all cases: biochemical
[1] = LC-MS assay of GH3 conjugation of dicamba with Asp or Glu; details: for Detected auxin conjugates: Dicamba-Asp / Detected auxin conjugates: Dicamba-Glu: LC-MS; for Detected auxin conjugates: Dicamba-Asp: dicamba with Asp; for Detected auxin conjugates: Dicamba-Glu: dicamba with Glu
Protocol: To detect and monitor the formation of acyl conjugates with 2,4-D or dicamba, a sensitive LC-MS method was developed using the respective amino acid conjugate standards. […] […] […] The supernatant was diluted 20× in water and then analyzed by LC-MS (AB Sciex 4000 QTrap coupled with Shimadzu Nexera UHPLC) using a Phenomenex Luna 3 μm Phenyl-Hexyl (00B-4256-Y0) column. The concentration of the conjugates was calculated based on the standards. Kinetic parameters were estimated by fitting initial velocity values to the Michaelis-Menten equation.
The GH3 superfamily conjugase activity analysis of IAA, 2,4-D or dicamba with Asp or Glu was done using LC-MS to analyze the final conjugate products as described in Example 1. Protein sequences of GH3 homologs (Table 3) were obtained from public databases (NCBI, http://www.ncbi.nlm.nih.gov/) by Blast analysis of AtGH3.17 protein sequence (accession # Q9FZ87). Coding sequences were designed for optimal expression in E. coli based on the protein sequences and synthesized. Synthesized coding sequences along with N-term his-tag coding sequences were cloned into a pET24a-based E. coli expression vector. The E. coli expression vectors were transformed into OverExpress C41(DE3) cells (Lucigen) for protein expression. Recombinant E. coli strains were inoculated into 5 ml LB media supplemented with 40 mg/L kanamycin and cultured overnight at 37° C. The overnight culture (0.5 mL) was inoculated into 50 mL LB medium plus 40 mg/L kanamycin and grown at 30° C. until OD600 reached 0.6. The cultures were induced with 0.2 mM IPTG at 16° C., 230 rpm overnight. Cells were harvested by centrifugation at 7,000 rpm for 10 mins. The cell pellet from 50 mL of cell culture was frozen and thawed twice and then lysed in 800 μL lysis buffer A (150 mM NaCl, 50 mM Tris-HCl pH 8.0, 5 mM MgCl2, 10% glycerol) plus 20 mM imidazole, 1 mM DTT, 0.2 mg/ml lysozyme, 1/200 protease inhibitor cocktail (EMD set3, EDTA free) and 1/2000 endonuclease. Lysate was then centrifuged at 13,000 rpm for 30 min at 4° C. Supernatant was loaded onto 200 μL Ni-NTA columns pre-equilibrated with buffer A with 20 mM imidazole at 4° C. Each column was then washed with (1) 2×800 μL of buffer A with 10 mM imidazole, (2) 2×800 μL of buffer A with 20 mM imidazole and (3) 2×200 μL of buffer A with 50 mM imidazole. Protein was eluted with 200 μL of buffer A with 250 mM imidazole. The concentration was measured by Bradford assay. Purified protein was used in conjugation reaction assays as described in example 1.

[2] = LC-MS assay of GH3 conjugation of 2,4-D with Asp or Glu; details: for Detected auxin conjugates: 2,4-D-Asp / Detected auxin conjugates: 2,4-D-Glu: LC-MS; for Detected auxin conjugates: 2,4-D-Asp: 2,4-D with Asp; for Detected auxin conjugates: 2,4-D-Glu: 2,4-D with Glu
Outline: (§1)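 N-terminal His-tagged GH3 homologs, expressed in E. coli C41(DE3) and Ni-NTA purified, at 44 to 164 μg/mL incubated 3 h at 30 °C in 20 mM Tris-HCl pH 8.0, 5 mM MgCl2, 1 mM DTT, 5 mM ATP, 5 mM auxin (IAA, 2,4-D or dicamba) and 5 mM Asp or Glu. Conjugates quantified by LC-MS against standards after MeOH precipitation; kinetics from Michaelis-Menten fits of initial velocities.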

[3] = LC-MS assay of GH3 conjugation of IAA with Asp or Glu; details: for Detected auxin conjugates: IAA-Asp / Detected auxin conjugates: IAA-Glu: LC-MS; for Detected auxin conjugates: IAA-Asp: IAA with Asp; for Detected auxin conjugates: IAA-Glu: IAA with Glu
Outline: as §1

Row | Molecule | Conjugation of dicamba with Glu ([1]; 16 hour reaction, result in words) | Amount of dicamba-Glu conjugates versus amount of protein in the reaction ([1]; FIG. 7, result in words) | kcat (16 hrs^−1) dicamba-Glu ([1]; conjugation of dicamba with Glu, 16 hour reaction, protein conc. 983 μg/mL) | kcat (hrs−1) 2,4-D-Asp ([2]; conjugation of 2,4-D with Asp by recombinant GH3 protein, 2,4-D-Asp product by LC-MS, 5 mM 2,4-D substrate) | kcat (hrs−1) 2,4-D-Glu ([2]; conjugation of 2,4-D with Glu by recombinant GH3 protein, 2,4-D-Glu product by LC-MS, 5 mM 2,4-D substrate) | 2,4-D conjugation activity with Asp or Glu ([2]; result in words) | kcat (hrs−1) IAA-Asp ([3]; conjugation of IAA with Asp by recombinant GH3 protein, IAA-Asp product by LC-MS) | kcat (hrs−1) IAA-Glu ([3]; conjugation of IAA with Glu by recombinant GH3 protein, IAA-Glu product by LC-MS) | IAA conjugation activity with Asp or Glu ([3]; result in words) | Detected auxin conjugates: Dicamba-Asp [1] | Detected auxin conjugates: Dicamba-Glu [1] | Detected auxin conjugates: 2,4-D-Asp [2] | Detected auxin conjugates: 2,4-D-Glu [2] | Detected auxin conjugates: IAA-Asp [3] | Detected auxin conjugates: IAA-Glu [3]
1 | B1 | could conjugate dicamba with Glu; also recorded: able to conjugate dicamba with glutamate | Increased amount of dicamba-Glu was detected; also recorded: increases with increased amount of PpGH3-2 protein | 0.024 16 hrs^−1 | 0.699 h⁻¹ | 2.820 h⁻¹ | active GH3 conjugase for both IAA and 2,4-D | 2.896 h⁻¹ | 19.308 h⁻¹ | can also conjugate IAA to Asp and Glu; also recorded: active GH3 conjugase for both IAA and 2,4-D |  |  |  |  |  | 
2 | B2 |  |  |  |  |  |  |  |  |  | No | No | No | No | Yes | No
3 | B3 |  |  |  |  |  |  |  |  |  | No | No | No | No | No | No
4 | B4 |  |  |  |  |  |  |  |  |  | No | No | No | No | Yes | No
5 | B5 |  |  |  |  |  |  |  |  |  | No | No | Yes | Yes | Yes | Yes
